Results published in the supplement of paper PMC7877785.
± gives the uncertainty stated by the source.

Test: self-splicing fitness, log relative to wild type (ln ratio); higher = more splicing; Tetrahymena group I intron in knt gene, E. coli kanamycin selection, DiMSum; sequences stand for … in CUCUCU…GGAGGGAAAAGUUAUCAGGCAUGCACCUGGUAGCUAGUCUUUAAACCAAUAGAUUGCAUCGGUUUAAAAGGCAAGACCGUCAAAUUGCGGGAAAGGGGUCAACAGCCGUUCAGUACCAAGUCUCAGGGGAAACUUUGAGAUGGCCUUGCAAAGGGUAUGGUAAUAAGCUGACGGACAUGGUCCUAACCACGCAGCCAAGUCCUAAGUCAACAGAUCUUCUGUUGAUAUGGAUGCAGUUCACAGACUAAAUGUCGGUCGGGGAAGAUGUAUUCUUCUCAUAAGAUAUAGUCGGACCUCUCCUUAAUGGGAGCUAGCGGAUGAAGUGAUGCAACACUGGAGCCGCUGGGAACUAAUUUGUAUGCGAAAGUAUAUUGAUUAGUUUUGGAGUACUCGUGGUCG
Outline: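 Pooled colonies went to amplicon sequencing on an Illumina HiSeq 2500 after six replicate transformations. The plates were LB agar with 100 μg/mL carbenicillin, 50 μM IPTG and 0.2% rhamnose, with or without 25 μg/mL kanamycin, incubated overnight at 37°C or 30°C. The E. coli BL21(DE3) library had all eight P1ex-region intron nucleotides randomised, the intron placed in the knt kanamycin-resistance gene on pET-22b(+). DiMSum fitness is the error-weighted combination of replicate fold changes, kanamycin against none, normalised to wild type.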

Sequence	self-splicing fitness (ln) (30 °C)	self-splicing fitness (ln) (37 °C)
GUACAGCAAUAUUACGCCAU	-3.46 ± 0.23	-2.32 ± 0.15
UGCGAGCAAUAUUACGGUCG	-2.27 ± 0.25	-2.39 ± 0.27
UCGCAGCAAUAUUACGCAUA	-1.94 ± 0.13	-0.0771 ± 0.11
CCCAAGCAAUAUUACGGCCA	-3.58 ± 0.31	-1.58 ± 0.16
GCAUAGCAAUAUUACGGUUA	-1.34 ± 0.093	-0.638 ± 0.084
UAAUAGCAAUAUUACGGGCC	-3.78 ± 0.44	-2.52 ± 0.48
AGUCAGCAAUAUUACGUGCA	-0.269 ± 0.073	-0.501 ± 0.099
ACACAGCAAUAUUACGAUCG	-0.738 ± 0.077	-0.032 ± 0.1
AUCAAGCAAUAUUACGUACA	-1.21 ± 0.1	-0.544 ± 0.12
UCUGAGCAAUAUUACGCGGU	-2.71 ± 0.28	-2.5 ± 0.28
UCAAAGCAAUAUUACGUUGA	-3.43 ± 0.14	-2.66 ± 0.18
AGUGAGCAAUAUUACGUCCG		-0.894 ± 0.22
GAAGAGCAAUAUUACGUGUG	-3.15 ± 0.22	-2.67 ± 0.18
AUUUAGCAAUAUUACGACCC	-1.16 ± 0.28	-0.0521 ± 0.3
CCUAAGCAAUAUUACGUCAG	-1.58 ± 0.12	-0.812 ± 0.12
GAACAGCAAUAUUACGCCUG	-1.85 ± 0.13	0.185 ± 0.13
AUGAAGCAAUAUUACGGCGG	-0.365 ± 0.083	0.476 ± 0.11
AAACAGCAAUAUUACGCAAU	-2.97 ± 0.081	-1.4 ± 0.076
CGUUAGCAAUAUUACGACAC	-2.43 ± 0.21	-0.891 ± 0.19
GACAAGCAAUAUUACGCUUG	-4.51 ± 0.29	-2.76 ± 0.27
UGAUAGCAAUAUUACGAUUC	-2.33 ± 0.24	-2.41 ± 0.49
GCGUAGCAAUAUUACGGUAG	-2.9 ± 0.28	-2.03 ± 0.23
CAGCAGCAAUAUUACGAUUG	-2.36 ± 0.093	-0.731 ± 0.09
GUCGAGCAAUAUUACGCCGG		-1.99 ± 0.41
CAGUAGCAAUAUUACGAAUU	-3.34 ± 0.28	
AGAAAGCAAUAUUACGUGCG	-0.896 ± 0.092	-0.684 ± 0.11

Sequence	self-splicing fitness (ln) (30 °C)	self-splicing fitness (ln) (37 °C)
GUGCAGCAAUAUUACGUGGG	-2.86 ± 0.11	-2.01 ± 0.11
CAUCAGCAAUAUUACGUAAG	-0.0494 ± 0.068	0.711 ± 0.092
AGGCAGCAAUAUUACGAGUG	-3.63 ± 0.28	-1.96 ± 0.18
AAGCAGCAAUAUUACGCAUC	-2.72 ± 0.18	
UGAGAGCAAUAUUACGUAUC	-0.611 ± 0.42	-0.408 ± 0.47
CCGGAGCAAUAUUACGGCGC		-0.565 ± 0.49
CACAAGCAAUAUUACGUGGG	-3.94 ± 0.16	-2.42 ± 0.12
GAUUAGCAAUAUUACGUGCA	-1.7 ± 0.14	-0.0754 ± 0.09
UCUAAGCAAUAUUACGCGAG	-3.69 ± 0.25	-1.6 ± 0.17
AAAGAGCAAUAUUACGGCUU	-1.05 ± 0.11	-0.397 ± 0.14
UCACAGCAAUAUUACGUCCA	-0.951 ± 0.14	-0.533 ± 0.14
UCAAAGCAAUAUUACGGAGG	-3.48 ± 0.28	-1.67 ± 0.21
GAAAAGCAAUAUUACGUCGU	-0.785 ± 0.086	-1.29 ± 0.12
UUGUAGCAAUAUUACGUGUU	-2.7 ± 0.25	-2.5 ± 0.24
CCAGAGCAAUAUUACGGUUG	-1.11 ± 0.089	-1.04 ± 0.13
GUUUAGCAAUAUUACGGGGA	-3.57 ± 0.37	-1.41 ± 0.22
CGACAGCAAUAUUACGGCCU	-1.57 ± 0.13	-0.3 ± 0.14
UACCAGCAAUAUUACGUGAU	-1.93 ± 0.063	-1.41 ± 0.074
GACUAGCAAUAUUACGGGCU	-2.18 ± 0.15	-1.64 ± 0.15
UCACAGCAAUAUUACGACAU	-3.584 ± 0.02	-2.19 ± 0.034
GUUUAGCAAUAUUACGGCUU	-1.08 ± 0.13	-0.894 ± 0.12
GUAUAGCAAUAUUACGCCGG	-2.45 ± 0.37	-1.59 ± 0.35
UGGAAGCAAUAUUACGGGCU	-3.13 ± 0.27	-1.32 ± 0.2
GAUUAGCAAUAUUACGAUUC	-2.58 ± 0.22	-1.45 ± 0.2
CCUCAGCAAUAUUACGUCCG	-1.86 ± 0.072	-0.0776 ± 0.11
UCAGAGCAAUAUUACGUAAU	-2.52 ± 0.25	-1.66 ± 0.3

Sequence	self-splicing fitness (ln) (30 °C)	self-splicing fitness (ln) (37 °C)
UAGAAGCAAUAUUACGUACG	-0.237 ± 0.1	-0.721 ± 0.13
GCGGAGCAAUAUUACGGCGU	-3.49 ± 0.33	-2.08 ± 0.31
CUCAAGCAAUAUUACGUCUC	-4.33 ± 0.39	-0.263 ± 0.2
UGGUAGCAAUAUUACGUCUU	-0.526 ± 0.12	0.37 ± 0.13
UACCAGCAAUAUUACGUGUG	-1.22 ± 0.046	-0.527 ± 0.059
GCCCAGCAAUAUUACGUGUG	-2.21 ± 0.08	-1.69 ± 0.081
UUCAAGCAAUAUUACGCGUC	-2.89 ± 0.15	-0.969 ± 0.16
CGACAGCAAUAUUACGCGCA	-1.17 ± 0.13	-0.0102 ± 0.12
AGUGAGCAAUAUUACGUCGG	-3.07 ± 0.31	-1.97 ± 0.36
AUGGAGCAAUAUUACGUUCC	-2.13 ± 0.33	
GGAUAGCAAUAUUACGAGCG	-0.76 ± 0.1	-0.0359 ± 0.088
CACAAGCAAUAUUACGCAUU	-2.9 ± 0.096	-2.5 ± 0.14
GGGGAGCAAUAUUACGUCUA		-2.6 ± 0.37
GUAGAGCAAUAUUACGAACU	-1.19 ± 0.23	-0.867 ± 0.24
AUGAAGCAAUAUUACGAAAC	-2.04 ± 0.2	-0.541 ± 0.3
CUCGAGCAAUAUUACGGCUG	-3.82 ± 0.42	-1.94 ± 0.29
UCUAAGCAAUAUUACGUAAG	-0.798 ± 0.075	-0.333 ± 0.1
GAGAAGCAAUAUUACGGACG	-0.812 ± 0.12	-0.528 ± 0.2
AUCGAGCAAUAUUACGGACA	-1.98 ± 0.38	-1.41 ± 0.42
UCUGAGCAAUAUUACGCUAU	-3.8 ± 0.22	-3.15 ± 0.28
ACGGAGCAAUAUUACGCGUA	-2.62 ± 0.12	-1.32 ± 0.11
CAGCAGCAAUAUUACGCUAU	-2.47 ± 0.27	-2 ± 0.18
CCAAAGCAAUAUUACGGCUU	-4.45 ± 0.21	-2.32 ± 0.14
AUGUAGCAAUAUUACGCCUC	-2.83 ± 0.41	-1.61 ± 0.32
ACUAAGCAAUAUUACGCUCU	-0.0344 ± 0.097	-0.566 ± 0.1
ACACAGCAAUAUUACGCGCC	-0.614 ± 0.11	-1.13 ± 0.1
